The numbers were not newly measured in paper PMC9085562, which cites them from elsewhere.

Usually Kd stands for a measure of binding affinity in units of concentration.

Series [1] addresses H3K9me3 peptide (Homo sapiens) (UniProt P68431). As to the kind of experiment: fluorescence polarization. Background: In fluorescence polarisation assays a small probe gives low polarisation when free and higher when bound to something large.
The target of series [2] is H3K9me1 peptide (Homo sapiens) (UniProt P68431).

On to Cbx1 (from UniProt P83916), for which the figures for the Kd in series [1] and in series [2] were 3.2 µM and 12.5 µM, respectively.
